The results in this text go back to patent US20230002493A1 (ORIONIS BIOSCIENCES, published 2023).

The chains are these.
B1: 2LIG189_OPT3 (VHH)
VHH: DVQLVESGGGLVQPGGSLRLSCAASGKIFSGNDMGWYRQAPGKQRELVGIITSGGITDYADAVKGRFTISRDNSKNMVYLQMNSLRPEDTAVYYCNMRDRTIWWGQGTLVTVSS
B2: 2LIG189_OPT4 (VHH)
VHH: DVQLVESGGGLVQPGGSLRLSCAASGKIFSGNDMGWYRQAPGKQRELVGIITSGGITDYADAVKGRFTISRDNSKNTVYLQMNSLRPEDTAVYYCNMRDRTIWWGQGTLVTVSS
B3: 2LIG99_OPT_D54G (VHH)
VHH: DVQLVESGGGLVQPGGSLRLSCTASGTIFSINRMDWFRQAPGKQRELVALITSGGTPAYADSAKGRFTISRDNSKKTVSLQMNSLRPEDTAVYYCHVSSGVYNYWGQGTLVTVSS
B4: P-2055: 2LIG99_OPT_D54G_K76N_S79Y (Q1D_Q5V_A14P_D54G_T74S_K76N_K86R_S79Y_Q110L) (VHH)
VHH: DVQLVESGGGLVQPGGSLRLSCTASGTIFSINRMDWFRQAPGKQRELVALITSGGTPAYADSAKGRFTISRDNSKNTVYLQMNSLRPEDTAVYYCHVSSGVYNYWGQGTLVTVSS
notes: not shown: C-terminal His-tag ('produced as described above')
B5: P-2051: 2LIG99_OPT_D54G_K76N (Q1D_Q5V_A14P_D54G_T74S_K76N_K86R_Q110L) (VHH)
VHH: DVQLVESGGGLVQPGGSLRLSCTASGTIFSINRMDWFRQAPGKQRELVALITSGGTPAYADSAKGRFTISRDNSKNTVSLQMNSLRPEDTAVYYCHVSSGVYNYWGQGTLVTVSS
notes: as for B4
B6: P-2053: 2LIG99_OPT_D54G_A63V_K76N (Q1D_Q5V_A14P_D54G_A63V_T74S_K76N_K86R_Q110L) (VHH)
VHH: DVQLVESGGGLVQPGGSLRLSCTASGTIFSINRMDWFRQAPGKQRELVALITSGGTPAYADSVKGRFTISRDNSKNTVSLQMNSLRPEDTAVYYCHVSSGVYNYWGQGTLVTVSS
notes: as for B4
B7: P-2056: 2LIG99_OPT_D54G_A63V_K76N_S79Y (Q1D_Q5V_A14P_D54G_A63V_T74S_K76N_K86R_S79Y_Q110L) (VHH)
VHH: DVQLVESGGGLVQPGGSLRLSCTASGTIFSINRMDWFRQAPGKQRELVALITSGGTPAYADSVKGRFTISRDNSKNTVYLQMNSLRPEDTAVYYCHVSSGVYNYWGQGTLVTVSS
notes: as for B4
B8: 2LIG99_OPT_D54G_A63V (VHH)
VHH: DVQLVESGGGLVQPGGSLRLSCTASGTIFSINRMDWFRQAPGKQRELVALITSGGTPAYADSVKGRFTISRDNSKKTVSLQMNSLRPEDTAVYYCHVSSGVYNYWGQGTLVTVSS
B9: P-2054: 2LIG99_OPT_D54G_A63V_S79Y (Q1D_Q5V_A14P_D54G_A63V_T74S_K86R_S97Y_Q110L) (VHH)
VHH: DVQLVESGGGLVQPGGSLRLSCTASGTIFSINRMDWFRQAPGKQRELVALITSGGTPAYADSVKGRFTISRDNSKKTVYLQMNSLRPEDTAVYYCHVSSGVYNYWGQGTLVTVSS
notes: The mutation list prints S97Y where the name prints S79Y; not shown: C-terminal His-tag ('produced as described above')
B10: P-2052: 2LIG99_OPT_D54G_S79Y (Q1D_Q5V_A14P_D54G_T74S_S79Y_K86R_Q110L) (VHH)
VHH: DVQLVESGGGLVQPGGSLRLSCTASGTIFSINRMDWFRQAPGKQRELVALITSGGTPAYADSAKGRFTISRDNSKKTVYLQMNSLRPEDTAVYYCHVSSGVYNYWGQGTLVTVSS
notes: as for B4

The target of one experiment is T1, recombinant PD-L1 extracellular domain fused to the mouse IgG1 Fc domain (SinoBiologicals) (human; mouse, UniProt Q9NZQ7 19-238).
T1 construct: extracellular domain; also called human PD-L1-mouse Fc; PD-L1-mouse Fc protein; not shown: mouse IgG1 Fc domain
T1 sequence (Q9NZQ7 19-238): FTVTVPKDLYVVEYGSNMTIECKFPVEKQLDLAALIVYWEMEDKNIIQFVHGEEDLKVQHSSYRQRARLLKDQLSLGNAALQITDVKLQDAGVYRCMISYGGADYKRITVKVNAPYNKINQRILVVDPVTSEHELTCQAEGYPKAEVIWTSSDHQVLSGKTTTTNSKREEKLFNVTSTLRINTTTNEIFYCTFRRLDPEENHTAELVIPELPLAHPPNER
Kind of experiment: BLI (Octet Red 96); ratio of the printed KDs, variant over 2LIG189. The procedure:
(§1) Affinities of resulting variants were measured using the bio-layer interferometry technology on an Octet Red 96 instrument (ForteBio). In brief, recombinant PD-L1 extracellular domain fused to the mouse IgG1 Fc domain (SinoBiologicals) was immobilized on anti-murine IgG quantitation (AMQ) biosensors (ForteBio). Loaded sensors were incubated with a serial dilution of PD-L1 VHH variant, association and dissociation monitored and kinetic parameters were calculated using the Octet Data Analysis software v10 (ForteBio).
(§2) The aspartic acid at position 1 was included to avoid the risk of pyroglutamate formation. […] Resulting mutants were purified and affinities measured as described in Example 1.
(In general: Biolayer interferometry detects binding as a change in optical thickness at a sensor tip.)
For the molecule B1, the “Ratio KD” value was determined as 6.18.
In the case of B2, the “Ratio KD” value stood at 2.19.

A further experiment has as its target T1, recombinant PD-L1 extracellular domain …. Kind of experiment: BLI (Octet), recombinant PD-L1-mouse Fc on the sensor, VHH dilution series. As for the experimental part: as §1
The isomerization motif in all these variants was removed by the D54G mutation. Variants were produced as described above and affinity measured on an Octet instrument using the recombinant PD-L1-mouse Fc protein.
Consider B3, for which the dissociation constant Kd (in general, the free concentration of one partner at which half of the binding sites on the other are occupied at equilibrium, for simple one-to-one binding) was determined as 0.553 nM; the dissociation rate constant (koff) (in general, the first-order rate constant of dissociation) came to 0.000856 s⁻¹; the on-rate (kon) (as a rule, the second-order rate constant of association) turned out to be 1.55e+06 M⁻¹ s⁻¹.
In the case of B4, the dissociation constant (Kd) worked out at 0.0445 nM, the koff is 5.52e-05 s⁻¹ and the kon came out at 1.24e+06 M⁻¹ s⁻¹.
The corresponding values for B5 are 0.358 nM, 0.000599 s⁻¹ and 1.67e+06 M⁻¹ s⁻¹.
The corresponding values for B6 are 0.602 nM, 0.00112 s⁻¹ and 1.87e+06 M⁻¹ s⁻¹.
The corresponding values for B7 are 0.735 nM, 0.000677 s⁻¹ and 921000 M⁻¹ s⁻¹.
Take B8: the Kd came out at 1.16 nM, the koff was determined as 0.00151 s⁻¹ and the kon was found to be 1.3e+06 M⁻¹ s⁻¹.
Consider B9, for which the equilibrium dissociation constant (Kd) was determined as 0.427 nM, the off-rate (koff) stood at 0.000779 s⁻¹ and the kon was found to be 1.83e+06 M⁻¹ s⁻¹.
The matching figures for B10: 0.182 nM, 0.000279 s⁻¹ and 1.54e+06 M⁻¹ s⁻¹.

The target is the same in the next experiment. Kind of experiment: BLI (Octet Red 96), PD-L1-mouse IgG1 Fc on AMQ biosensors, VHH dilution series. The procedure:
as §1, §2
As for B1, the Kd was determined as 4.89 nM, the koff was found to be 0.000942 s⁻¹ and the on-rate (kon) stood at 193000 M⁻¹ s⁻¹.
The corresponding values for B2 are 1.74 nM, 0.000301 s⁻¹ and 174000 M⁻¹ s⁻¹.
